In a protein production outcome set (Wang et al. 2014):

Experiment: label from the status in PepcDB records

Sequence: MERLKLYFSYFKNKILKKYESKKAQSVIDTEEIKEEIWEADFSKKEKARFIEETGDGYQSLFEENLDGKHSYSLELKRKHLYAWALNPLFRYKDFVLDAEIELPVFTDNFFPEENTSAGYCAAGFVFRHISDKAFYSLLISDKGWIRLEAVVNSTPMPILGWTKPLTDIDSSKFKIKLICAGTSITVLVNNTWLGKFESDIVQAAGKIGFAGQNWETYPKVKFYLNEFKIISQPLLVENTDSAANNPDAISPEAYINLASTYYAMGQYVAAIYQIKQAWKLREPGIQDHILAGRIYFAQHLNEEAEKEFLHALDIEHDNYEIMAELAGLYYQSGNMKKLGDILKDIPNDEIEKSVLLCSLKGHFLNSQGKHEKSAAFYAKAFELKPDQGLLKYNEANELNLAGKTAEAVEAYTEAGKLFLASEEYNEMANVINALERIAPEDERTWALSGKFYYAVDNKWEAKLNFKKLCDAKTSDSTIWYLYGLLIHDEKPEEAVKFFKKACKLGPEHGLYHFRLAEALYLIGEDCSVPLSEAEALEPNNGWIFNLKALCAIDEDAFFDAQIEIEKARKMLPDEIVILENYVEIMRLQGRLKECAPLFDIEAGTADLAAERNRAEAFHIYANALFFDEQYDEADIWYQKALKLKPVDPVLLTDKAENSIKIGYLNDADGLLVKAMDIEPTERIYRLISLLAVKKGDHARAEVSLRQAIEEFGESEELLFDLTNLYIQTNRKEKAKETIKLLTNCEDQERLKELKALLKK
- protein production: failed

Sequence: MERNSWAEQWDSNQQSSGKTTHGGEGGGASSKYKEKVGAGLGKTKAAASSGLKKVKIGTSLGLNWVKDKYNKTTTKN
- protein production: failed

Sequence: MERRLCAILAADMAGYSRLMERNETDVLNRQKLYRRELIDPAIAQAGGQIVKTTGDGMLARFDTAQAALRCALEIQQAMQQREEDTPRKERIQYRIGINIGDIVLEDGDIFGDAVNVAARLEAISEPGAICVSDIVHQITQDRVSEPFTDLGLQKVKNITRPIRVWQWVPDADRDQSHDPQPSHVQH
- protein production: not failed

Sequence: MERSAFMELDAGSRLVMHLREWPALLVSSTGWTEFEQLTLDGHNLPSLVCVITGSVDLGVCLHMSSSGLDLPMKVVDMFGCCLPVCAVNFKCLHELVKHEENGLVFEDSEELAALQMLFSNFPDPAGKLNQFWKDLRESQQLRWDESWVQTVLPLVMDIQLLGQRLKPRDPCCPSRSFFSESQGKPF
- protein production: failed

Sequence: MESGHRFDAQTLHSFIQAVFRQMGSEEQEAKLVADHLIAANLAGHDSHGIGMIPSYVRSWSQGHLQINHHAKTVKEAGAAVTLDGDRAFGQVAAHEAMALGIEKAHQHGIAAVALHNSHHIGRIGYWAEQCAAAGFVSIHFVSVVGIPMVAPFHGRDSRFGTNPFCVVFPRKDNFPLLLDYATSAIAFGKTRVAWHKGVPVPPGCLIDVNGVPTTNPAVMQESPLGSLLTFAEHKGYALAAMCEILGGALSGGKTTHQETLQTSPDAILNCMTTIIINPELFGAPDCNAQTEAFAEWVKASPHDDDKPILLPGEWEVNTRRERQKQGIPLDAGSWQAICDAARQIGMPEETLQAFCQQLAS
- protein production: not failed

Sequence: MESIQSSLKHMTGNRSFEKQFTQLKEAVFRSPHVQLFLEEHPSLSPITLEQGLSKLYEYQKEQSHCAHCPGLQKCPNLMKGYQPTLYVERDSLELSYSPCPLKEEEEREKKKRSLIRSLYIPKEILEAKFDDVESEPGRSIASHRALEFALSAKPGEDGMGLYLYGKFGVGKTFLMGAIANELKDRGIDSTIVYVPDFFRELKQSIGDGTFQQKLDFVKNAQVLIFDDIGAETMTSWVRDDVLGVILQYRIMEKLPTLFTSNYDYDELEEHLAYNDKSGTELLKAKRVMERIRHYTVSVMVQGQNRREHQSLEHHHHHH
- protein production: not failed

Sequence: MESLPFVAAQPTIVPQLQQQVTGLTSSLNSQEKKELTHKLESIFNNTQVQIAVLIVSTTKDETIEQYATRVFDNWRLGDAKRNDGILIVVAWSDRTVRIQVGYGLEEKVTDALAGDIIRSNMIPAFKQQKLAKGLELAIIALNNQLTSQHQYPANPSESESTSSTDHYYFAIFWVFAVMFFPFWFFHQGSNFCRACKSGVCISAIHLLDLFLFSDKTFSIAVFSFFFTFTIFMVFTCLCVLQKRASGRSYHSDNSGSAGGSSGGASGRWLEHHHHHH
- protein production: failed

Sequence: MESLRSERNQYRILVDITNSVLAHLDMDGLISEVSKEIHRFFGLNHISLMLCRTSSQNSHEGILYSSRYQTGKSVIRQQRKFSSANNKAEEIIHQNKPVLIDINKEDQDDVLIKRLVKQNMQTALLLPLAFNRKPLGLLILAHEISSVFTEETCQLLQQIAARIGIAIENAAAYEEITHLKDS
- protein production: not failed

Sequence: MESLTQYIPDEFSMLRFGKKFAEILLKLHTEKAIMVYLNGDLGAGKTTLTRGMLQGIGHQGNVKSPTYTLVEEYNIAGKMIYHFDLYRLADPEELEFMGIRDYFNTDSICLIEWSEKGQGILPEADILVNIDYYDDARNIELIAQTNLGKNIISAFSN
- protein production: not failed

Sequence: MESMVAPGEVLMSQAIQPAHADSRGELSAGQLLKWMDTTACLAAEKHAGISCVTASMDDILFEDTARIGQIITIRAKVTRAFSTSMEISIKVIVQDKFTGIQKLLCVAFSTFVAKPVGKEKVHLKPVLLQTEQEQVEHNLASERRKVRLQHENTFNNIMKESSRFSDSICNEEEGTATTMGTSVQSIELVLPPHANHHGNTFGGQIMAWMETVATISASRLCHGHPFLKSVDMFKFRGPSTVGDRLVFSAIVNNTFQNSVEVGVRVEAFDCQEWAEGQGRHINSAFLIYNAVDDQEKLITFPRIQPISKDDFRRYQGAIARRRIRLGRKYVISHKKEVPLSAQWDISKKGSLSNTNVEALKNLASKSGWEITTTLEKIKIYTLEEQDAISVKVEKLVGSPAHIAYHLLSDLTKRPLWDPHYISCEVIDQVSEDDQIYYITCSVVNGDKPKDFVVLVSRRKPLKDNNTYTVALRSVVLPSVPSSPQYIRSEVICAGFLIQAVDSNSCTVTYLNQMSDSILPYFAGNIGGWSKSIEEAAASCIKFIENATPDGLKSVL
- protein production: failed

Sequence: MESPPMFNSVEDECRYWKERSKQYHKEWTDVKQEYDEFVEQSREMEIEMDATLDQKQSIIKDLTAKLTMFERENESLKLKLESHGIDMSNMEKQLETVKKDRDTMKVYLRQLEQKNDDLERAHRILNESIENFEKMLDQAYEKNALLELEVDEKGLLQEKLQRLMDETRDLKQELNVKSRFTPVVNGTSVPTANDTNTVNSSMNSSASLPNGIVANGELVKHDNAVATRATSVSVNALNGSLVNRNEYNQQHSLKSDGDETEDVPREWSANAAATPLLPAIHTSGAGRTALLLAGCRVVWILQFSVIHKPQIRNPIT
- protein production: failed

Sequence: MESSPSGSEPPQKVVSKLQKVGWRATMIFNLGFAAYIFAIKREKDIDADEKKKVKKGSEARHKGVKKGAVNTEIEKKGAEETDKAKEAETAIPEKEETKLIPELDPLFEFTDATDQSMFQTVATEHVKVARKPIPEDEQKELFKWILEEKRKIEPKDRKEKKQIDEEKAILKQFIRAERIPKLLPDDSVDSSLRDWDKFFSK
- protein production: failed

Sequence: MESTLSQLLPEALATRRRALAQMITGLHLAEHVHLSKVAGRIAGTAQLESKTRHLRRFLGNENVDPERFYSPVRDRLIEWAAQGAETQGSGPIRLLVDTVELSGERQVLMAGIAYRRRALPICWETYRREGVTNAEQQISLLKALVGRFPDEAEVVVVGDGAFHSTDLMDFIEDQGWHFCLRLHADTYIRSFKDSSKGFPKEGTWKQLRDLVPEEGERRYLQDVIVTKDNEYGPVGLALCQAEDEDDP
- protein production: failed

Sequence: MESVSCSAAAVRTGDMESQRDLSLVPERLQRREQERQLEVERRKQKRQNQEVEKENSHFFVATFARERAAVEELLERAESVERLEEAASRLQGLQKLINDSVFFLAAYDLRQGQEALARLQAALAERRRGLQPKKRFAFKTRGKDAASSTKVDAAPGIPPAVESIQDSPLPKKAEGDLGPSWVCGFSNLESQVLEKRASELHQRDVLLTELSNCTVRLYGNPNTLRLTKAHSCKLLCGPVSTSVFLEDCSDCVLAVACQQLRIHSTKDTRIFLQVTSRAIVEDCSGIQFAPYTWSYPEIDKDFESSGLDRSKNNWNDVDDFNWLARDMASPNWSILPEEERNIQWD
- protein production: not failed

Sequence: METAKDGEQSPSEASPPTQAGPETISEPVPLEEEGQPLYHEETIDLGGDDFASEETEPTSEGSHNFGDKLNEHMMESVLISDSPNNSEGDVGDLGCLQDVGEPPRGATDHRLPDSTDKEVVDTLSNGSETDGDDTPRDISDMTPDSRASLKEDSTQEDVPAMPALENAGTEEVGPKDSLVPREEQTSEVSSSQSSSKDEPLPVCTIFSQATSTSSQPHLFLQDGFESQMVKSPSFSSTSETSAKTPPPMVQPSPSLSTFFGDTMSSNSLASDFFDSFTTSTFISVSNPNAGSPVPEKLASLTAPVGEKSPDSTSPSYSTRMDRSESGVSRAALDVPESPKPFSQIQAVFAGSDDPFATALSMSEMDRRNDAWLPSQATREVLMSVATQQYGTVFIDKENLTMPGLKFDNIQGDAVKDLMLRFLGEKAAAKRQVLNASSVEQSFVGLKQLISCRNWRAAVDLCGRLLTAHGQGYGKSGLPTNHTTDSLQLWFVRLALLVKLGLFQNAEMEFEPFGNLDQPDLYYEYYPHVYPGRRGSMVPFSMRILHAELQQYLGNPQESLDRLHRVKTVCSKILANLEQGLAEDGGLSSVTQESRQASVQLWRSRLGRVLYSMANCLLLMKDYVLAVNAYLTVIKYYPEQEPQLLSGIGRILLQIGDIKTAEKYFQDVEKVTQKLDGLQGKIMVLMNRAFLYLGQNNFAEAHKFFTEILRMDPTNAVANNNAAVCLLYLGKLKDSLRQLEAMVQQDPRHYLHESVLFNLTTMYELESSRSMQKKQSLLEAVASKEGDSFNTQCLKLA
- protein production: failed

Sequence: METEGSLSILHVDDDAELGALVELYLEREDSGLDCTVTTETNPETALSLIRSSETNFDCIVSDYDMPEMNGIDFLEAIRETHPELPVLLFSGEETGDVAAEIIQAGVTDYLKKSVGTDQYTSLIRRVEHAVDSDGSFETGNEVKLSGVGVIGTDERFERVGETYASYYGYESEELVGKHWSELHPSNEVQHIRTHVIPAVRSGGKWTGQSKGLRADETTFTESKMVTALEDGRMLIAVDEIDDSGLAE
- protein production: failed

Sequence: METGAGIGLYPLHRCKTIYLVRHAQGIHNVDGEKNYKAYMSHDYFDAELTQLGWKQVDSLRKHVHSSGLHKKIELVISSPLMRTLQTAVGVFGGEGYTDMSDVLPLMVANAGNSSRAAISSLNCPPVITEESCREHLGVHPCDQRRSISDYQFLFPAVDFSLIESEEDKLWKADVRETIEELAARGKKFLNWLWTRKEKEIAIVTHSGFLFHTLNALQNECHPDVKKEICGHFANCELRSMVIVDRSMLGSDSSVTDYPGKIPKGIDLPSDAVVDDNNIKVE
- protein production: not failed

Sequence: METKGTGMTVNTVDVSAGRAQQVLREGWAAQRAGALTTSWMLHGRPGVGKTEIVRQLAAEQGARFYDLRLTTIESQDLRGLPYYDHETKKTQWYRPEDLPDDPDRPSLLFLDELTAAPPHLHPAVYGLLLERRVGPHILPDNVFLVAAGNMVEDGAVAYEMGTALSDRLIHLQVRATASDWLESYAVPRTLHPAVLAFIRMRPDLLETTAEALDRGLMISTTPRSWDRVSRIMGAVQDRALRRIMVAGTVGEAVAAEFMLVADDIEASVSVERLLNAAPHERIMLYPESMHGLHALIYGLVGALGPTTAVPVIDVMAGIRTLDVHRSDASFARMPLAELCTHGFEMAIRRGLEQGLAEDFLGHPAYAAYASERQAMGLELEHHHHHH
- protein production: failed

Sequence: METLDNHDQGFCRQVPRQAVCGFSRRTGWGGAAIFVMLMTLALAAPVQAQSLRQGVSAYQRQDYVAASRIFIPLAERGNAAAQTYLGLLFETGRGLPQNYTEAAMWYRRAAEQGDSRAQYSLGLLYDRGFGVPQDVVEASKWLNLSTAAAPPRAREARVRIRDAVTTKMTRGEIAQARLRALEWAPSREH
- protein production: failed

Sequence: METNQLRGIFYMMAAMLLISVQEALAKYLGQALPVAQVVWARYLGHLVLMIILLWPKNGMSLLKTNKLFIQIARSLILLIDTVLFFFGLTMLGLAEATAIFFTVPLLVLLLSIPLLGERVSASSIVAVIVGFIGTLIIVRPGINGLGSSDLGIGALFIFGAACCTAIYNVTTRKLSASEPIPVTLFYTAIVGAVVTSLFLPFIWETPTSLEVWAALIFIGLFGGSAHSLIIISHKYAAATTVAPFIYSQIFWALGLGWLMFGELPDFYVYFGGAIVISSGLYLFYHGRTRVNTASQQLGKDPLLVNAAKIKALQNRP
- protein production: failed
